Source: patent US20160272707A1 (COMPUGEN, published 2016)

T1: VSTM5 monomer (UniProt A8MXK1 29-147, limits assumed)
T1 construct: also called monomeric VSTM5 antigen; VSTM5 antigen
T1 sequence (looked up): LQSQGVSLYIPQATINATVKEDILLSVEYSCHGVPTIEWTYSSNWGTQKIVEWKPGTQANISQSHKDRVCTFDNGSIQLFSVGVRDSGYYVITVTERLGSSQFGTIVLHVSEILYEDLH

T2: mouse VSTM5 (SEQ ID NO:11) expressed on HEK-293T cells (mouse, UniProt Q9D806 28-199)
T2 construct: also called mouse VSTM5 untagged
T2 sequence: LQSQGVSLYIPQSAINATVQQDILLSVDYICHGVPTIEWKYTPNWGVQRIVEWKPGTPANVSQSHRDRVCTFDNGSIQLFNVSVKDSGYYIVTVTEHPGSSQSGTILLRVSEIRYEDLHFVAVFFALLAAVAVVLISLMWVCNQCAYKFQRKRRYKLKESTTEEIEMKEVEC

T3: human VSTM5 (SEQ ID NO:132) expressed on HEK-293T cells (human, UniProt A8MXK1 29-200)
T3 construct: For the western blot, whole cell extracts were used; no signal peptide limits are stated; also called human VSTM5 untagged; HEK293T recombinant cells expressing human VSTM5
T3 sequence: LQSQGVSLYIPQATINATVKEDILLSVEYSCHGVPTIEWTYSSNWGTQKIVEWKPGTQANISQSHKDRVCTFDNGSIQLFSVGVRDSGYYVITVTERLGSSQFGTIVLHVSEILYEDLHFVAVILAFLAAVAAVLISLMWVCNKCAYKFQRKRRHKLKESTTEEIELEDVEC

T4: VSTM5 on human peripheral blood leukocytes (Homo sapiens, UniProt A8MXK1)
T4 construct: full-length, cell surface, endogenous; also called endogenous human VSTM5
T4 sequence (membrane protein, looked up): T3 sequence

B1: 50-01.B01 (antibody, V domains shown)
VH: QVQLQESGPGLMKPSQTLSLTCTVSGDSITRGSSYWSWIRQSDGKGLEWIGHIYSGGDTDYNPALKSRVTISADASRGQFLLRLTSMTAADTAVYYCARDRGAYGMDVWGQGTTVTVSS
VL: QPVLTQSSSASASLGASVKLTCTLSSEHDRYAIAWLQQKPEKGPRYLMKVNSDGSHRKGDGIPDRFSGSSSGAERYLTISRLQSEDEADYYCQTWGIGIRVFGGGTQLTVLG
notes: also called 50-01.801
B2: 53-01.B11 (antibody, V domains shown)
VH: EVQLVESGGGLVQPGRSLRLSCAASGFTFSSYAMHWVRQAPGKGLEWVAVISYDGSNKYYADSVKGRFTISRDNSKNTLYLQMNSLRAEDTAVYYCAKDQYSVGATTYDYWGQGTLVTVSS
VL: QPVLTQSSSASASLGASVKLTCSLSSGHSSYAIAWHQQQPEKGPRYLMKLNSDGSHSKGDGIPDRFSGSSSGAERYLTISSLQSEDEADYYCQTWGSGIQVFGGGTKLTVLG
notes: also called S53-01-B11; S53-01.B11

What was measured:
VSTM5 monomer [1] = target: T1, VSTM5 monomer; test: SPR, VSTM5 monomer binding to the IgG (equilibrium binding constant)
[2] = target: T5, human VSTM5-EGFP (SEQ ID NO:133) expressed on HEK-293 cells (human); test: FACS, IgG1 at 22 nM on 293-huVSTM5 (VSTM5-EGFP) cells; grade from ratio to 293-MT control cells (50-400)
T5 construct: Full-length human VSTM5 fused at its C-terminus to EGFP; also called VSTM5_GFP

VSTM5 monomer [3] = target: T1, VSTM5 monomer; test: SPR, VSTM5 monomer binding to the IgG
[4] = target: T2, mouse VSTM5 (SEQ ID NO:11) expressed on …; test: FACS, IgG1 at 22 nM on 293-muVSTM5 cells; grade from ratio to 293-MT control cells (50-400)
[5] = target: T3, human VSTM5 (SEQ ID NO:132) expressed …; test: flow cytometry on HEK293T cells expressing untagged human VSTM5; antibody at 1 nM (0.15 ug/ml), PE goat anti-human secondary 1:200
Description: To verify the cell-surface expression of human VSTM5 in HEK293T recombinant cells (FIG. 8C), cells expressing the protein were stained with monoclonal VSTM5 antibody (S53-01-B11, described in Example 12 and 13 herein) and appropriate Isotype control followed by Goat a human PE conjugated Ab (Cat#
Non expressing cell line (HEK293T_pIRESpuro3) was stained under the same conditions and used for a negative control.

[6] = target: T5, human VSTM5-EGFP (SEQ ID NO:133) …; test: FACS titration of the human IgG1 on 293-huVSTM5 cells, 293-MT control cells as open squares; y axis MFI (anti-Human A647)
[7] = target: T6, VSTM5-ECD-Ig H:H (human VSTM5 ECD fused to human IgG1 Fc, SEQ ID NO:130) (human); test: FACS of tosyl-activated beads coated with anti-CD3 and 0 to 320 ug/ml VSTM5-ECD-Ig, stained with Alexa 647 conjugated 53-01.B11
T6 construct: also called VSTM5-ECD-Ig fusion protein; VSTM5HH
Experimental: Tosyl activated beads (Invitrogen, Cat#14013) at 500×10⁶/ml were coated with anti-CD3 mAb and Fc fusion proteins in a two-step protocol: with 50 ug/ml human anti-CD3 clone UTCH1 (R&D systems, Cat# mab 100) in sodium phosphate buffer at 37° C. overnight, followed with 0-320 ug/ml of VSTM5-ECD-Ig fusion protein (human ECD of VSTM5 fused with Fc of human IgG1) for another overnight incubation at 37° C. In the second step, control human Fc was added together with Fc fusion protein so that the total amount of protein is 160 ug/ml (Bioxcell, Cat# BE0096) for the 0, 20, 40, 80 and 160 ug/ml coating condition (except for the 320 ug/ml coating condition).
The amount of anti-CD3 antibody bound to the beads was analyzed using goat anti-mouse 647 (Jackson ImmunoResearch, Cat#115-606-146).

[8] = target: T4, VSTM5 on human peripheral blood …; test: FACS, AF647 conjugated antibody on red-cell-lysed human peripheral blood of 3 donors, Fc receptors blocked with human IgG, against Synagis AF647
Experimental: Human peripheral blood was collected from 3 healthy donors. Red blood cells were lysed with RBC Lysis Buffer (eBiosciences Cat#00-4333-57) according to the manufacturer's protocol. Cells were incubated with 400 ug/ml human IgG (Jackson Immunoresearch #009-000-003) for 20 min on ice to block Fc receptors and then stained with cocktails consisting of Synagis® AF647, and anti-VSTM5 antibodies disclosed in Example 12, i.e., anti-VSTM5 AF647 (clone 44-2.E06 or 53-01.B11), anti-CD11b PE (Biolegend Cat#301305), anti-CD45 PerCp Cy5.5 (Biolegend #304207), anti-CD14 FITC (Biolegend cat#352610), or anti-CD41 PE (Biolegend Cat#303705) for 30 min on ice. All AF647 antibodies were conjugated at Compugen using Alexa Fluor® 647 Antibody Labeling Kit (Life Technologies Cat# A-20186) according to the manufacturer's protocol. Cells were washed twice with FACS Buffer (1% BSA, 0.1% Sodium Azide, PBS) and acquired on Intellicyte FACS machine. Data was analyzed by FlowJo and cell subsets defined as below: Monocytes: CD14⁺CD11b⁺, Neutrophils: CD11b⁺CD14^low, Lymphocytes FSC^lowSSC^lo, Eosinophils SSC^hi, platelets: CD45⁻CD41⁺. Staining of anti-VSTM5 antibodies to these cells was compared to staining with Synagis.

[9] = target: T2, mouse VSTM5 (SEQ ID NO:11) expressed on …; test: FACS, IgG1 at 22 nM on 293-muVSTM5 cells; grade from ratio to 293-MT control cells (850-2000)
[10] = target: T2, mouse VSTM5 (SEQ ID NO:11) expressed on …; test: FACS titration of the human IgG1 on 293-muVSTM5 cells, panel 'Ab binding vs. mouse VSTM5'; y axis MFI (anti-Human A647)
[11] = target: T5, human VSTM5-EGFP (SEQ ID NO:133) …; test: FACS, IgG1 at 22 nM on 293-huVSTM5 (VSTM5-EGFP) cells; grade from ratio to 293-MT control cells (850-2000)

| Binder | Kd (VSTM5 monomer [1]) | ratio of 293-huVSTM5 cell binding / 293-MT control cell binding (FACS) at 22 nM mAb [2] | Kd (VSTM5 monomer [3]) | ratio of 293-muVSTM5 cell binding / 293-MT control cell binding (FACS) at 22 nM mAb [4] | binding result [5] | EC50 (read off the curve) [6] | binding result [7] | binding result [8] | ratio of 293-muVSTM5 cell binding / 293-MT control cell binding (FACS) at 22 nM mAb [9] | EC50 (read off the curve) [10] | ratio of 293-huVSTM5 cell binding / 293-MT control cell binding (FACS) at 22 nM mAb [11] |
| --- | --- | --- | --- | --- | --- | --- | --- | --- | --- | --- | --- |
| B1 | 657 nM | 50 to 400 ratio | 657 nM | 50 to 400 ratio | – | – | – | – | – | – | – |
| B2 | – | – | – | – | binds | ~3 nM | binds | binds | 850 to 2000 ratio | ~2 nM | 850 to 2000 ratio |
